{"source": "IntAct's records for PubMed 11591686", "parents": {"B1": {"name": "RNA polymerase sigma factor RpoD (Pseudomonas aeruginosa (strain ATCC 15692 / PAO1 / 1C / PRS 101 / LMG 12228)), P26480 (parent)", "chain": "MSGKAQQQSRLKELIARGREQGYLTYAEVNDHLPEDISDPEQVEDIIRMINDMGINVFETAPDADALLLAEADTDEAAAEEAAAALAAVESDIGRTTDPVRMYMREMGTVELLTREGEIEIAKRIEEGIREVMSAIAQFPGTVDSILADYNRIVAEGGRLSDVLSGYIDPDDGSLPAEEVEPVNLKDDSADSKEKDDEEEESDDSSDSDDEGDGGPDPEEARLRFTAVSEQLDKAKKALKKHGRGSKQATAELTGLAELFMPIKLVPKQFDALVARVRSALEGVRAQERAIMQLCVRDARMPRADFLRLFPNHETDEKWVDSVLKSKPKYAEAIERLRDDILRNQQKLAALESEVELTVAEIKEINRAMSIGEAKARRAKKEMVEANLRLVISIAKKYTNRGLQFLDLIQEGNIGLMKAVDKFEYRRGYKFSTYATWWIRQAITRSIADQARTIRIPVHMIETINKLNRISRQMLQEMGREPTPEELGERMDMPEDKIRKVLKIAKEPISMETPIGDDEDSHLGDFIEDSTMQSPIEMATSESLKESTREVLAGLTAREAKVLRMRFGIDMNTDHTLEEVGKQFDVTRERIRQIEAKALRKLRHPSRSEHLRSFLDE", "partner": "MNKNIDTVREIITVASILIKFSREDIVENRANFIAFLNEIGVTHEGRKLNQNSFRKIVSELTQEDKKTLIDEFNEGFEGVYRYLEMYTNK"}, "B2": {"name": "RNA polymerase sigma factor RpoD (Pseudomonas aeruginosa (strain ATCC 15692 / PAO1 / 1C / PRS 101 / LMG 12228)), P26480 (parent)", "chain": "B1 chain", "partner": "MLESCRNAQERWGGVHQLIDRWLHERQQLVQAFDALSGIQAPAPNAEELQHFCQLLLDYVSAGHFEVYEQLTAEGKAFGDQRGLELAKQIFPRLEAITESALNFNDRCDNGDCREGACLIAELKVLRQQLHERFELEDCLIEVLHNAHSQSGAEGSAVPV"}, "B3": {"name": "RNA polymerase sigma factor RpoD (Pseudomonas aeruginosa (strain ATCC 15692 / PAO1 / 1C / PRS 101 / LMG 12228)), P26480 (parent)", "chain": "B1 chain", "partner": "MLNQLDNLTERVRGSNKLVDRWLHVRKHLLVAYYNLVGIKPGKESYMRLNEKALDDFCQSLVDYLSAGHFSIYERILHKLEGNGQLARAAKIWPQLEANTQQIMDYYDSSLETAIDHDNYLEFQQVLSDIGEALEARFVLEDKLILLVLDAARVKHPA"}}, "data": [{"variants_of": "B1", "details": "with asia_bpt4 asiA", "values": [{"variant": "R600H", "effect of a mutation on the interaction": "decreasing interaction"}]}, {"variants_of": "B2", "details": "with algq_pseae algQ", "values": [{"variant": "R600H", "effect of a mutation on the interaction": "decreasing interaction"}]}, {"variants_of": "B3", "details": "with rsd_ecoli rsd", "values": [{"variant": "R600H", "effect of a mutation on the interaction": "decreasing interaction"}]}]}
